T1: MBP-Dnmt5(345-747) (Cryptococcus neoformans, UniProt J9VI03 345-747)
T1 sequence: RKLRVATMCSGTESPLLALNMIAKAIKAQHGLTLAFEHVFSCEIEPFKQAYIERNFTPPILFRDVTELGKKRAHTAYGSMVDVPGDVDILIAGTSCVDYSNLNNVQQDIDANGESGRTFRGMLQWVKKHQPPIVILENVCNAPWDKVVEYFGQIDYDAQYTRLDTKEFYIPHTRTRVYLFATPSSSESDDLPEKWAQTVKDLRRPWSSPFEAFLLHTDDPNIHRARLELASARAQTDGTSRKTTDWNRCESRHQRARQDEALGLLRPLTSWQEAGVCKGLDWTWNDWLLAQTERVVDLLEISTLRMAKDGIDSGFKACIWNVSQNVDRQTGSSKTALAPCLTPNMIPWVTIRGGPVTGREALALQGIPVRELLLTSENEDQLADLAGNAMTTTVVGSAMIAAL

T2: MBP-Dnmt5(1-150, W87A, Y90A) (Cryptococcus neoformans, UniProt J9VI03 1-150, W87A;Y90A)
T2 sequence: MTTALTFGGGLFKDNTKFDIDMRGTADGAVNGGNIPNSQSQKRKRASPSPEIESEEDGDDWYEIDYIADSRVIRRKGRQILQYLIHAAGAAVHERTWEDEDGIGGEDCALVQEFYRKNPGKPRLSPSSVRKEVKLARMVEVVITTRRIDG


How the values were obtained:
Assay in all cases: EMSA
MBP-Dnmt5(345-747) = molecular target: T1, MBP-Dnmt5(345-747)
Dnmt5 full-length [1] = molecular target: T3, Dnmt5 full-length (Cryptococcus neoformans, UniProt J9VI03 1-2377)
[2] = molecular target: T2, MBP-Dnmt5(1-150, W87A, Y90A)
Dnmt5 full-length [3] = molecular target: T3, Dnmt5 full-length; remark: listed apart in the source

| Binder | Kd (MBP-Dnmt5(345-747)) [nM] | Kd (Dnmt5 full-length [1]) [nM] | binding result [2] | binding signal (Dnmt5 full-length [3]) |
| --- | --- | --- | --- | --- |
| Unmethylated 60 bp DNA (3 CG), Cy5 (dsDNA) DNA 1: CATGGCCTAAGCCGGACTGAATGAGCAAGCTTCCGGAGAATTCTGCCGGACTGCAGATGC DNA 2: GCATCTGCAGTCCGGCAGAATTCTCCGGAAGCTTGCTCATTCAGTCCGGCTTAGGCCATG | 7 ± 3 | 20 ± 5 |  |  |
| Hemimethylated 60 bp DNA (3 CG), Cy5 (dsDNA, 5mC at strand 1 positions 13, 34, 47) DNA 1: CATGGCCTAAGCCGGACTGAATGAGCAAGCTTCCGGAGAATTCTGCCGGACTGCAGATGC DNA 2: GCATCTGCAGTCCGGCAGAATTCTCCGGAAGCTTGCTCATTCAGTCCGGCTTAGGCCATG | 6 ± 2 | < 1 | no binding |  |
| Unmethylated 60 bp DNA, one CG, Cy5 (dsDNA) DNA 1: CATGGCCTAAGCAGGACTGAATGAGCAAGCTTCCGGAGAATTCTGCAGGACTGCAGATGC DNA 2: GCATCTGCAGTCCTGCAGAATTCTCCGGAAGCTTGCTCATTCAGTCCTGCTTAGGCCATG |  |  |  | 1 reference; abasic DNA binds 5-fold tighter |

— article doi:10.1101/2020.01.05.895227
